The target of assay [1] is T1, 15N-labeled SPOP MATH domain (amino acids 28-166) (human, UniProt O43791 28-166, 15N-labeled).
T1 construct: SPOP, human, MATH domain, residues 28-166; Hexahistidine tag cleaved with PreScission protease
The assay can be described thus: NMR titration; 1H-15N HSQC of 0.2 mM 15N-labeled SPOP MATH titrated with up to 3-fold molar excess of unlabeled peptide; 298 K; phosphate buffer, 50 mM NaCl, 5 mM DTT, pH 6.0. The note with it: both partners purified.

A further assay deals with T2, SPOP MATH (D140G mutant) (human, UniProt O43791 28-166, D140G).
T2 construct: SPOP, human, MATH domain, residues 28-166, D140G; Purified 'using the same protocol' as the 15N-labeled MATH domain 28-166; also called SPOP-MATH domain (D140G mutant)
The assay can be described thus: crystal structure; 1.1 mM SPOP MATH D140G with 5.5 mM Geminin peptide; sitting drop, 22 °C; 3.4 Å. The note with it: both partners purified.

T1 sequence (O43791 28-166): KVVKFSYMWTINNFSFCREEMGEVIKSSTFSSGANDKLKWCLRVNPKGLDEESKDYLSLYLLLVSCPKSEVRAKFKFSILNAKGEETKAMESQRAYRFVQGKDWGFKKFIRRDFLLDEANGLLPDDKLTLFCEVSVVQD
T2 sequence (O43791 28-166 D140G): as the sequence (O43791 28-166) above, with D113G counted along it

B1: Geminin WT SBC-containing peptide (amino acids 195-209) (peptide)
peptide: AEGTVSSSTDAKPCI
notes: Geminin, human, residues 195-209; also called Geminin peptide; Geminin wild-type SBC peptide; source: synthetic peptide
As for B1, the binding result (in assay [1]; with SPOP MATH (D140G mutant)) was “binds” in each case.
